The target in data set [1] is T1, FlgK (Salmonella enterica serovar Typhimurium, UniProt P0A1J5 1-553).
T1 construct: FlgK, filament-type export substrate, Salmonella enterica serovar Typhimurium (plasmid pMKGK2, pTrc99A); source: E. coli BL21 Star (DE3), purified (Q-Sepharose anion exchange)
T1 sequence: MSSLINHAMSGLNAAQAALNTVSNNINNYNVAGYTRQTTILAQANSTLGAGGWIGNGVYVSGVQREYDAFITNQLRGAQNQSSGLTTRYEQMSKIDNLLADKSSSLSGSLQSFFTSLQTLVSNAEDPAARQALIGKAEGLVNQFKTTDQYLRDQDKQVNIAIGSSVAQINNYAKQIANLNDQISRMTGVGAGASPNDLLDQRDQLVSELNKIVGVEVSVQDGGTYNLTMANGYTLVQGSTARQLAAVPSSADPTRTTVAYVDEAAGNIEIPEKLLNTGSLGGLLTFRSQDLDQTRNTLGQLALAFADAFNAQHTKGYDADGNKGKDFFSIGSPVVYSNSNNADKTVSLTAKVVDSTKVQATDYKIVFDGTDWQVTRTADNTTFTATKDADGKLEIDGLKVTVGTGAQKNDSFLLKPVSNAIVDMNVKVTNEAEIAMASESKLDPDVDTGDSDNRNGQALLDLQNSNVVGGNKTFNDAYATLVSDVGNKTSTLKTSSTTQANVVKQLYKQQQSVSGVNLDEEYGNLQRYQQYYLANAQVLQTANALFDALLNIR
Briefly: pull-down; GST affinity chromatography: purified His-FlhAC mixed with purified GST-FlgN/FlgK complex or GST-FliJ, dialyzed overnight against PBS pH 7.4 at 4 °C, loaded on glutathione Sepharose 4B, eluted with 10 mM reduced glutathione; SDS-PAGE with CBB staining. The note with it: both partners purified.

Data set [2] deals with the molecule itself. Kind of data set: high-speed atomic force microscopy; ring formation of purified FlhAC monomer (2 μM) in 50 mM Tris-HCl pH 8.0, 100 mM NaCl placed on mica, room temperature; imaged in 10 mM Tris-HCl pH 6.8.

B1: GST-FlgN (natural protein)
chain: MTRLSEILDQMTTVLNDLKTVMDAEQQQLSVGQINGSQLQRITEEKSSLLATLDYLEQQRRLEQNAQRSANDDIAERWQAITEKTQHLRDLNQHNGWLLEGQIERNQQALEVLKPHQEPTLYGADGQTSVSHRGGKKISI
notes: FlgN, flagellar export chaperone, Salmonella enterica serovar Typhimurium (plasmid pMMGN101, pGEX-6p-1); source: Salmonella SJW1368, purified (glutathione Sepharose 4B)
For the molecule B1, the binding result in data set [1] was “binds”.

B2: His-FlhAC with the Y369A/R370A/L371A/I372V (AAAV) mutation (domain or fragment)
chain: AGILIMVINVVGGLLVGVLQHGMSIGSAAESYTLLTIGDGLVAQIPALVISTAAGVIVTRVSTDQDVGEQMVGQLFSNPRVMLLAAAVLGLLGMVPGMPNLVFLLFTAALLGLAWWLRGREEKAPEEPQPVKMPENNSVVEATWNDVQLEDSLGMEVGAAAVPMVDFQQDGELLGRIRSIRKKFAQDMGFLPPVVHIRDNMDLQPARYRILMKGVEIGSGDAYPGRWLAINPGTAAGTLPGEKTVDPAFGLDAIWIESALKEQAQIQGFTVVEASTVVATHLNHLIGQFSAELFGRQEAQQLLDRVSQEMPKLTEDLVPGVVTLTTLHKVLQNLLAEKVPIRDMRTILETLAEHAPLQSDPHELTAVVRVALGRAITQQWFPGNEEVQVIGLDTALERLLLQALQGGGGLEPGLADRLLAQTQEALSRQEMLGAPPVLLVNHALRPLLSRFLRRSLPQLVVLSNLELSDNRHIRMTATIGGK
notes: Intragenic suppressor (A372V) of the AAAA mutant; also called FlhA_(C-AAAV); His-FlhA_(C-AAAV); source: E. coli BL21 Star (DE3), purified (Ni-NTA, SEC); not shown: His tag, N-terminal, kept
B2: the “stoichiometry N” value in data set [2] came to 9.

Values taken from article PMC10965912, “FliH and FliI help FlhA bring strict order to flagellar protein export in Salmonella” (Communications Biology, 2024).
